# Results from publication PMC5663709 (Scientific Reports, 2017).
# B1: S40 IgG (antibody, V domains shown)
# VH: EVQLVESGGGLVQPGGSLRLSCAASGFTIGDFGIHWVRQAPGKGLEWVAGIWPFGGYTYYADSVKGRFTISADTSKNTAYLQMNSLRAEDTAVYYCARFVNWDGDYMDYWGQGTLVTVSS
# VL: DIQMTQSPSSLSASVGDRVTITCRASQDVGFYVAWYQQKPGKAPKLLISWSSYLYSGVPSRFSGSGSGTDFTLTISSLQPEDFATYYCQQYYNYPLTFGQGTKVEIK
# notes: copies: 2 + 2
# B2: S40 Fab (Fab, V domains shown)
# VH: B1 VH
# VL: B1 VL
# Assays:
# [1] = target: recombinant hemagglutinin (HA) trimer of H1N1 A/California/07/2009, ectodomain (Influenza A virus A/California/07/2009 …, UniProt C3W5X2); assay: ELISA; conditions: both partners purified
# [2] = target: purified monomeric HA of H1N1 CA/09 (thrombin-digested ectodomain) (Influenza A virus A/California/07/2009 …, UniProt C3W5X2); assay: crystal structure; conditions: both partners purified
binder,measurement,setting,value
B1,binding result,[1],binds
B2,binding result,[2],binds
